In publication PMC5367461 (Biochemical and biophysical research communications, 2017):
One block for each binder: values may come before it.

Tests used:
[1] = target: T1, PDZ-RhoGEF PDZ domain (residues 41-123), human (human, UniProt O15085 41-123); test: crystal structure
T1 sequence (looked up): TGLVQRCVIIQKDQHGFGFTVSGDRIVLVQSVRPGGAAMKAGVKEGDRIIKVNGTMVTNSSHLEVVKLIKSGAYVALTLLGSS

[2] = target: the molecule itself; test: SDS-PAGE with/without BME

binding result [1]: binds
B1: CXCR2 C-terminal PDZ binding motif TSTTL (residues 356-360 of human CXCR2) (peptide)
peptide: TSTTL

B2: rPDZ-CXCR2 fusion protein: human PDZ-RhoGEF PDZ (residues 41-123) with the C-terminal extension TSTTL of human CXCR2 (other)
chain: TGLVQRCVIIQKDQHGFGFTVSGDRIVLVQSVRPGGAAMKAGVKEGDRIIKVNGTMVTNSSHLEVVKLIKSGAYVALTLLGSSTSTTL
stoichiometry N [2]: 2
